Measured values: patent US11932673B2, “Sodium channel inhibitors” (priority 2017, dated 2024)
Values joined by “and” are separate entries in the source; they are usually repeats but may differ in a detail not shown here. Equal values may be shown once.

Key:
huASIC1a = molecular target: T1, huASIC1a (Homo sapiens, UniProt P78348); test: QPatch automated whole-cell patch-clamp on HEK293 cells stably expressing huASIC1a; type: cell-based; conditions: full blocking 300 nM PcTx1 (positive control) perfused at end of each KnotBody or control incubation, then pH 6.0; one value per preceding sample
T1 sequence (P78348 whole entry, looked up): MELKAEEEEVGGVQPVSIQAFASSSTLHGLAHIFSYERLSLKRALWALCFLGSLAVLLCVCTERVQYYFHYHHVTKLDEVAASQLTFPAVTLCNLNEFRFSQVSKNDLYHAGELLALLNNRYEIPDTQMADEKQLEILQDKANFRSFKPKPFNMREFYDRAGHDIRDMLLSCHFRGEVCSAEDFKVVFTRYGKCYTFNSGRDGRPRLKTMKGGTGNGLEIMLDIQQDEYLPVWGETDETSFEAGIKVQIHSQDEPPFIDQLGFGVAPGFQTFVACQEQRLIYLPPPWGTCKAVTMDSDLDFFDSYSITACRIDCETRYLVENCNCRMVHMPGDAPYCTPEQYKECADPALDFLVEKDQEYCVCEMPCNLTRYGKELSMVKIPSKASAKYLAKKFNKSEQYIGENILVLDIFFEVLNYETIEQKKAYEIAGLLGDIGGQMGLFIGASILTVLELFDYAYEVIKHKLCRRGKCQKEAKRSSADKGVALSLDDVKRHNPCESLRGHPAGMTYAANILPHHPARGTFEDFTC
Method: Knottin Kv 1.3 and ASIC1a blockers expressed in the KnotBody format (see examples 6 and 7) were tested for their ability to inhibit the function of the ion channel targets. The effect of these KnotBodies on cells expressing the human Kv 1.3 (huKv1.3) or human ASIC1a channels was assessed using QPatch automated whole-cell patch-clamp electrophysiology (Sophion).
To functionally assess the ASIC1a KnotBodies, HEK293 cells stably expressing huASIC1a (Sophion) were analysed using a QPatch electrophysiology assay in the presence or absence of the KnotBody fusions (using KB_A12 as a recipient and replacing the original EETI-II donor as shown in Table 8). The “parental” KB_A12 with the EETI-II donor was used as a negative control. Internal and external physiological solutions were freshly prepared prior to the assay. […]
At the end of each KnotBody incubation and subsequent ASIC1a current activation, a full blocking concentration (300 nM) of the ASIC1a knottin inhibitor PcTx1 (positive control) was perfused onto the cell recording and a final activating pH 6.0 external solution was applied. The percentage remaining signal between activating pH 6.0 baseline (i.e. pre-KnotBody) and post-KnotBody incubation was determined.

trypsin = test: Phage TRF binding assay of KnotBody phage on immobilised biotinylated trypsin; conditions: EETI-II directly fused to the N-terminus of gene III; TRF
Method: Phage display technology facilitates isolation of binders to any given target from large combinatorial repertoires based on proteins and peptides that can be presented on the surface of filamentous phage^105. In order to isolate functional knottin-antibody fusions from the KnotBody libraries multiple rounds of phage display selections on trypsin (cognate antigen for the EETI-II donor) were carried out. Phage particles were prepared by rescuing KnotBody libraries using trypsin cleavable helper phage^102,106 Two rounds of phage display selections were performed on 10 μg/ml biotinylated trypsin immobilised on Streptavidin (for Round-1) or Neutravidin (for round-2) coated Maxisorp™ immunotubes (Thermo Scientific, Cat No. 444202). In both rounds of selection, phage libraries were pre-incubated with streptavidin coated paramagnetic beads (Thermo Fisher Scientific, Cat. No. 11205D). […] Polyclonal phage preparations from round-2 selection outputs were analysed for trypsin binding using a time resolved fluorescence (TRF) binding assay. In this assay, polyclonal phage binding to biotinylated trypsin immobilised on neutravidin (Thermo Fisher Scientific, Cat. No 31000) coated Maxisorp™ plates (Thermo Scientific, Cat. No. 437111) was detected using a mouse anti-M13 antibody (GE Healthcare, Cat. No. 27-9420-01) followed by europium conjugated anti-mouse antibody (Perkin Elmer, Cat. No. AD0124). […]

Substance | % current remaining PcTx1 (300 nM) (huASIC1a) | binding to trypsin of phage (trypsin)
PcTx1: ASIC1a knottin inhibitor, positive control at 300 nM; SEQ ID NO: 20 | 2% and 1.9% and 2.7% and 3.8% and 3.6% | –
EETI-II [reference compound] | – | no detectable binding to trypsin
